Data on 5 molecules can be found in patent publication US20110021548A1, “INHIBITORS OF MALT1 PROTEOLYTIC ACTIVITY AND USES THEREOF” (priority 2007, published 2011).

“Also recorded” adds a separate entry of the source. code Z = not defined here

Assay in all cases: MALT1 paracaspase assay (Ac-LSSR-AMC cleavage, AMC release)
Assay [1] relates to MALT1. The class given is biochemical, human. The following applies: for Inhibition of the MALT1 paracaspase activity by A. thaliana serpin: FIG. 11, several serpin concentrations.
Assay [2] deals with T1, MALT1 (Homo sapiens, UniProt Q9UDY8).
T1 construct: made in house
T1 sequence (Q9UDY8 334-824): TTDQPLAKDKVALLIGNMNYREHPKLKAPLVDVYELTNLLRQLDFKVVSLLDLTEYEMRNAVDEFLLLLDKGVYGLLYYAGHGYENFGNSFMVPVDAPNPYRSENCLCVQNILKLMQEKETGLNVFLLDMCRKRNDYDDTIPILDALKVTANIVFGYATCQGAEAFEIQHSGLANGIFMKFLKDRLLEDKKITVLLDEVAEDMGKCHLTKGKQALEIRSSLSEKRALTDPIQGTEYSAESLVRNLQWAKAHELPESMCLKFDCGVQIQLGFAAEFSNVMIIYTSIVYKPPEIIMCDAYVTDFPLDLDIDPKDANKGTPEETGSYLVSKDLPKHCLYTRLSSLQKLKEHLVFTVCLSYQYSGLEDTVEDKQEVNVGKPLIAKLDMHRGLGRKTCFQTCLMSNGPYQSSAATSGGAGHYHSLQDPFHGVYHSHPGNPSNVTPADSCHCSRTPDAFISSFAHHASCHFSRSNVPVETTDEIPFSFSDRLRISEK
The class given is biochemical. As to conditions: recombinant MALT1 p20 fragment; substrate 100 μM; inhibitor 100 μM.

In assay [3] the target is T2, MALT1 (Homo sapiens, UniProt Q9UDY8).
T2 construct: made in house
T2 sequence (Q9UDY8 2-824): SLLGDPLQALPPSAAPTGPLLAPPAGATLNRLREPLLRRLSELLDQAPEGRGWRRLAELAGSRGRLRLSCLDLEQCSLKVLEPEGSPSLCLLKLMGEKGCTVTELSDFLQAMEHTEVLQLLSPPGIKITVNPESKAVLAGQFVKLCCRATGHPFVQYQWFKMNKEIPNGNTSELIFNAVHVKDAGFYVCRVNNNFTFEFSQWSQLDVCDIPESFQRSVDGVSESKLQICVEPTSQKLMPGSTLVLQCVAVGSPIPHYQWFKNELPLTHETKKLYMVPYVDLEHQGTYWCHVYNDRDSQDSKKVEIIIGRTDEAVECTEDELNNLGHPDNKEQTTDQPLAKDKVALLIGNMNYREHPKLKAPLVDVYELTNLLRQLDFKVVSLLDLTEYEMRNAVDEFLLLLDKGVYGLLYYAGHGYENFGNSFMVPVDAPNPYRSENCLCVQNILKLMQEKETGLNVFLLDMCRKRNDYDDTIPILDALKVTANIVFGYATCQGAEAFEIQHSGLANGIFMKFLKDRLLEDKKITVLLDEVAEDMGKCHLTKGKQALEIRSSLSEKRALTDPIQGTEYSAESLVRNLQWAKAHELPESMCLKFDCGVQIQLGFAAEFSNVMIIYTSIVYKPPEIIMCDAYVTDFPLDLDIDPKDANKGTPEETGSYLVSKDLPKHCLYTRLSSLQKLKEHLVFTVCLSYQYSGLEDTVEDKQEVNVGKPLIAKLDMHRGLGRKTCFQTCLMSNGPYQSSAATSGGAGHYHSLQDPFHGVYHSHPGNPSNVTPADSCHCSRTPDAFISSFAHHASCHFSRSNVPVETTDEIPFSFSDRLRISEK
The class given is biochemical. The following applies: bio-IP purified MALT1 from HEK-293T cells; substrate 100 μM; inhibitor 100 μM (equimolar).

Turning to `Cc1ccc(-c2ccc(C=C3C(=O)NC(=S)NC3=O)o2)cc1Cl` [Inh03, 5-{[5-(3-chloro-4-methylphenyl)-2-furyl]methylene}-2-thioxodihydro-4,6(1H,5H)-pyrimidinedione], in assay [1] (FIG. 12, different concentrations), the “Inhibition of the malt paracaspase activity in small compound screening” value was “Inhibitory effect”. “Z-LSSR-CHO: peptide derivate (tetrapeptide LSSR, SEQ ID NO:1), inhibitor of MALT1 proteolytic activity, purchased from Anaspec ({code Z}-LSSR-aldehyde; reading uncertain; also: printed as Z-LSSR-CHO)”: the “Inhibition of Ac-LSSR-AMC cleavage by recombinant MALT1” value in assay [2] was “completely blocked”. Further, the “Inhibition of Ac-LSSR-AMC cleavage by bio-IP purified MALT1” value in assay [3] is reported as “inhibits MALT1 proteolytic activity; also recorded: efficiently blocked”. For “Z-GASR-CHO: peptide derivate (tetrapeptide GASR, SEQ ID NO:2), inhibitor of MALT1 proteolytic activity ({code Z}-GASR-aldehyde; reading uncertain; also: printed as Z-GASR-CHO)”, in that order: “completely blocked” and “efficiently blocked”.

B1: A. thaliana serpin (AT1g47710): Arabidopsis thaliana serpin (AT1g47710), indicated as serpin-wt (protein)
chain: MDVRESISLQNQVSMNLAKHVITTVSQNSNVIFSPASINVVLSIIAAGSAGATKDQILSFLKFSSTDQLNSFSSEIVSAVLADGSANGGPKLSVANGAWIDKSLSFKPSFKQLLEDSYKAASNQADFQSKAVEVIAEVNSWAEKETNGLITEVLPEGSADSMTKLIFANALYFKGTWNEKFDESLTQEGEFHLLDGNKVTAPFMTSKKKQYVSAYDGFKVLGLPYLQGQDKRQFSMYFYLPDANNGLSDLLDKIVSTPGFLDNHIPRRQVKVREFKIPKFKFSFGFDASNVLKGLGLTSPFSGEEGLTEMVESPEMGKNLCVSNIFHKACIEVNEEGTEAAAASAGVIKLRGLLMEEDEIDFVADHPFLLVVTENITGVVLFIGQVVDPLH
Consider B1, for which the “Inhibition of the MALT1 paracaspase activity by A. thaliana serpin” value in assay [1] is on record as “possible, but only at relatively high concentrations”.

B2: IKLA-mutant: mutant serpin in which the reactive center loop has been replaced by the sequence IKLA (SEQ ID NO:16) (protein)
chain: MDVRESISLQNQVSMNLAKHVITTVSQNSNVIFSPASINVVLSIIAAGSAGATKDQILSFLKFSSTDQLNSFSSEIVSAVLADGSANGGPKLSVANGAWIDKSLSFKPSFKQLLEDSYKAASNQADFQSKAVEVIAEVNSWAEKETNGLITEVLPEGSADSMTKLIFANALYFKGTWNEKFDESLTQEGEFHLLDGNKVTAPFMTSKKKQYVSAYDGFKVLGLPYLQGQDKRQFSMYFYLPDANNGLSDLLDKIVSTPGFLDNHIPRRQVKVREFKIPKFKFSFGFDASNVLKGLGLTSPFSGEEGLTEMVESPEMGKNLCVSNIFHKACIEVNEEGTEAAAASAGVIKLAGLLMEEDEIDFVADHPFLLVVTENITGVVLFIGQVVDPLH
B2: the “Inhibition of the MALT1 paracaspase activity by A. thaliana serpin” value in assay [1] is recorded as “performing better than wild type serpin at higher concentrations”.
